{"source": "patent US11124558B2", "about": "“Use of tetranectin and peptide agonists to treat inflammatory diseases” (The Feinstein Institutes for Medical Research, priority 2017, dated 2021)", "molecules": {"B1": {"name": "tetranectin (protein, listed as Homo sapiens)", "chain": "EPPTQKPKKIVNAKKDVVNTKMFEELKSRLDTLAQEVALLKEQQALQTVCLKGTKVHMKCFLAFTQTKTFHEASEDCISRGGTLGTPQTGSENDALYEYLRQSVGNEAEIWLGLNDMAAEGTWVDMTGARIAYKNWETEITAQPDGGKTENCAVLSGAANGKWFDKRCRDQLPYICQFGIV"}}, "key": {"[1]": {"test_system": "HMGB1 release, primary murine peritoneal macrophages", "test": "LPS- or SAA-induced HMGB1 release in primary murine peritoneal macrophages (Western blotting)", "format": "cell-based", "conditions": "for inhibition of LPS- or SAA-induced HMGB1 release: primary murine peritoneal macrophages, 16 h, serum-free OPTI-MEM I, TN from HEK293 or E. coli", "experimental": "(§1) A, B, Primary murine peritoneal macrophages. C, Primary human peripheral blood mononuclear cells (HuPBMCs). Murine macrophages or human monocytes (HuPBMCs) were cultured in serum-free OPTI-MEM I medium, and stimulated with LPS or SAA for 16 h at the indicated concentrations. The extracellular HMGB1 levels were determined by Western blotting, and expressed as % of maximal stimulation by LPS or SAA alone.\n(§2) Immune-modulating properties of tetranectin: To explore TN's immune-modulating properties, its effects on the LPS- and SAA-induced HMGB1 release were examined in murine macrophage and human monocyte cultures. […] This inhibition was TN-dose-dependent, evident at concentrations as low as 5.0 μg/ml, and became more dramatic (with 50-100% inhibition) at higher doses.\n(§3) Effects of TN on the LPS-, IFN-γ-, or SAA-induced HMGB1 release. To elucidate the regulatory mechanisms of HMGB1 release, we will examine the impact of TN and its peptide agonists on the HMGB1 release induced by a wide array of inflammatory stimuli including the crude LPS [75], IFN-γ [76] and SAA [77], in macrophage and monocyte cultures. Primary peritoneal macrophages will be isolated from the Balb/C mice (both male and female, 7-8 weeks, 20-25 g) at 2-3 days after intraperitoneal injection of 2 ml thioglycollate broth (4%, Difco, Detroit, Mich.) as previously described. Human peripheral blood mononuclear cells (HuPBMCs) will be isolated from human blood obtained from the Long Island Blood Bank (NY) by density gradient centrifugation through Ficoll as previously described. At 80-90% confluence, macrophage/monocyte cultures will be stimulated with the crude LPS (Cat. No. L3012, Sigma-Aldrich), IFN-γ (Cat. No. 14777, Sigma-Aldrich), or SAA (Cat. No. 300-13, PeproTech) at different concentrations and for various time periods. The extracellular levels of HMGB1 in the culture medium will be determined by Western blotting as previously described."}, "[2]": {"test_system": "HMGB1 release, human peripheral blood mononuclear cells (HuPBMCs)", "test": "LPS- or SAA-induced HMGB1 release in primary human peripheral blood mononuclear cells (Western blotting)", "format": "cell-based", "conditions": "for inhibition of LPS- or SAA-induced HMGB1 release: HuPBMCs / human monocytes, 16 h, TN from HEK293 or E. coli", "experimental": "as §1, §2, §3"}, "[3]": {"biological_target": "T1, HMGB1 (Homo sapiens, UniProt P09429)", "T1 sequence (P09429 1-215)": "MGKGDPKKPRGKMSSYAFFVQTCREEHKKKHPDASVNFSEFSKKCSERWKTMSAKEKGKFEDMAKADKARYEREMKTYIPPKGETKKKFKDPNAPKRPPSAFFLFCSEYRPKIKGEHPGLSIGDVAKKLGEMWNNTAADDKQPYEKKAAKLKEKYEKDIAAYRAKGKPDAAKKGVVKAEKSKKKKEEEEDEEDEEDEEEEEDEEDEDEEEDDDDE", "test": "BIAcore surface plasmon resonance assay of HMGB1-TN interaction", "conditions": "TN immobilized on CM5 chip, HMGB1 as analyte; read-out: estimated (apparent) Kd of HMGB1 binding to TN", "experimental": "FIG. 11: BIAcore Surface Plasmon Resonance Assay of HMGB1-TN Interaction. Recombinant TN was immobilized on the sensor chip, and HMGB1 was applied as an analyte at different concentrations. The response units were recorded over time, and the binding affinity was estimated as the apparent Kd.\nEffects of TN supplementation on the sepsis-induced coagulation. This laboratory has recently discovered that some pharmacological agents (e.g., tanshinones) inhibit HMGB1 release by facilitating its internalization into macrophage cytoplasmic vesicles via the clathrin- and caveolin-dependent endocytosis. Similarly, some endogenous proteins (e.g., haptoglobin) can also capture HMGB1 to enhance its cellular uptake through a CD163 receptor-mediated endocytosis. Thus it is determined whether TN can capture HMGB1 and enhance its internalization into macrophages/monocytes. The TN-HMGB1 interaction is investigated by employing the surface plasmon resonance (SPR) technology as previously described. Briefly, the highly purified recombinant TN or HMGB1 is covalently immobilized on a CM5 chip, and HMGB1 or TN is applied to the chip at various concentrations, before the SPR response will be monitored using a BIAcore system as previously described."}, "[4]": {"biological_target": "apolipoprotein A1 (Apo-A1)", "conditions": "ref [58]; read-out: Kd of TN binding to Apo-A1; cited from earlier work"}, "[5]": {"conditions": "listed as recombinant human TN protein"}}, "data": [{"molecule": "B1", "values": [{"measurement": "effect on LPS- or SAA-induced release of most other cytokines (G-CSF, IL-6, IL-12) and chemokines (KC, LIX, MIP-1α, MIP-2, RANTES)", "setting": "[1]; data not shown, cells not specified", "value": "did not inhibit"}, {"measurement": "lowest concentration at which inhibition of HMGB1 release was evident", "setting": "[1]; murine macrophages", "value": 5.0, "unit": "µg/mL"}, {"measurement": "inhibition of LPS- or SAA-induced HMGB1 release", "setting": "[1]", "value": "dose-dependently inhibited"}, {"measurement": "inhibition of LPS- or SAA-induced HMGB1 release", "setting": "[1]; [5]", "value": "capable of inhibiting"}, {"measurement": "inhibition of LPS- or SAA-induced HMGB1 release", "setting": "[2]", "value": "dose-dependently inhibited"}, {"measurement": "inhibition of LPS- or SAA-induced HMGB1 release", "setting": "[2]; [5]", "value": "capable of inhibiting"}, {"measurement": "lowest concentration at which inhibition of HMGB1 release was evident", "setting": "[2]; human monocytes", "value": 5.0, "unit": "µg/mL"}, {"measurement": "inhibition of HMGB1 release at higher doses", "setting": "[2]; human monocytes, doses above 5.0 μg/ml", "value": "50-100%"}, {"measurement": "Kd", "setting": "[3]", "value": 570, "unit": "nM"}, {"measurement": "Kd", "setting": "[4]", "value": 13, "unit": "nM"}]}]}
